The values that follow come from PMC3310434 (Tuberculosis (Edinburgh, Scotland), 2011).

Data set [1] concerns the molecule itself. Nature of the data set: crystal structure.
For data set [2], the target named is T1, VapC-3 toxin of Mtb VapBC-3 (Rv0300-Rv0301) (Mycobacterium tuberculosis, UniProt P9WFB9 2-141).
T1 sequence: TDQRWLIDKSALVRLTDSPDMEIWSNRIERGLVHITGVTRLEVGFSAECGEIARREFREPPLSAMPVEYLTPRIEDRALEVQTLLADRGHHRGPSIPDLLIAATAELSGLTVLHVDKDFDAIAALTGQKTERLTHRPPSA
Nature of the data set: crystal structure.

Data set [3] concerns the molecule itself. The data set is described as follows: dynamic light scattering.
Data set [4] deals with the molecule itself. Nature of the data set: crystal structure. The source holds these as a separate data set.

As a reminder, the stoichiometry N is the number of molecules, sites or subunits per partner or assembly.

B1: VapB-3 antitoxin of Mtb VapBC-3 (Rv0300-Rv0301) (natural protein)
chain: MSDVLIRDIPDDVLASLDAIAARLGLSRTEYIRRRLAQDAQTARVTVTAADLRRLRGAVAGLGDPELMRQAWR
B1: the binding result in data set [1] and in data set [2] was “binds” throughout.

B2: Rv0812, putative Mtb 4-amino-4-deoxychorismate (ADC) lyase (PabC) (enzyme)
chain: MVVTLDGEILQPGMPLLHADDLAAVRGDGVFETLLVRDGRACLVEAHLQRLTQSARLMDLPEPDLPRWRRAVEVATQRWVASTADEGALRLIYSRGREGGSAPTAYVMVSPVPARVIGARRDGVSAITLDRGLPADGGDAMPWLIASAKTLSYAVNMAVLRHAARQGAGDVIFVSTDGYVLEGPRSTVVIATDGDQGGGNPCLLTPPPWYPILRGTTQQALFEVARAKGYDCDYRALRVADLFDSQGIWLVSSMTLAARVHTLDGRRLPRTPIAEVFAELVDAAIVSDR
On to B2, for which the “stoichiometry N” value in data set [3] amounted to 2.

B3: Mtb fumarase (enzyme)
chain: MAVDADSANYRIEHDTMGEVRVPAKALWRAQTQRAVENFPISGRGLERTQIRALGLLKGACAQVNSDLGLLAPEKADAIIAAAAEIADGQHDDQFPIDVFQTGSGTSSNMNTNEVIASIAAKGGVTLHPNDDVNMSQSSNDTFPTATHIAATEAAVAHLIPALQQLHDALAAKALDWHTVVKSGRTHLMDAVPVTLGQEFSGYARQIEAGIERVRACLPRLGELAIGGTAVGTGLNAPDDFGVRVVAVLVAQTGLSELRTAANSFEAQAARDGLVEASGALRTIAVSLTKIANDIRWMGSGPLTGLAEIQLPDLQPGSSIMPGKVNPVLPEAVTQVAAQVIGNDAAIAWGGANGAFELNVYIPMMARNILESFKLLTNVSRLFAQRCIAGLTANVEHLRRLAESSPSIVTPLNSAIGYEEAAAVAKQALKERKTIRQTVIDRGLIGDRLSIEDLDRRLDVLAMAKAEQLDSDRL
Regarding B3, the “stoichiometry N” value in data set [4] is 4.
